# Test results: PMC9715652, “Structural insights into mechanism and specificity of the plant protein O-fucosyltransferase SPINDLY” (Nature Communications, 2022)
# Residue numbers refer to the chain shown, from its start. Numbers in names are those of the source.
# B1: SPINDLY (SPY): S21A (protein)
# parent chain: MVGLEDDTERERSPVVENGFSNGSRSSSSSAGVLSPSRKVTQGNDTLSYANILRARNKFADALALYEAMLEKDSKNVEAHIGKGICLQTQNKGNLAFDCFSEAIRLDPHNACALTHCGILHKEEGRLVEAAESYQKALMADASYKPAAECLAIVLTDLGTSLKLAGNTQEGIQKYYEALKIDPHYAPAYYNLGVVYSEMMQYDNALSCYEKAALERPMYAEAYCNMGVIYKNRGDLEMAITCYERCLAVSPNFEIAKNNMAIALTDLGTKVKLEGDVTQGVAYYKKALYYNWHYADAMYNLGVAYGEMLKFDMAIVFYELAFHFNPHCAEACNNLGVLYKDRDNLDKAVECYQMALSIKPNFAQSLNNLGVVYTVQGKMDAAASMIEKAILANPTYAEAFNNLGVLYRDAGNITMAIDAYEECLKIDPDSRNAGQNRLLAMNYINEGLDDKLFEAHRDWGWRFTRLHPQYTSWDNLKDPERPITIGYISPDFFTHSVSYFIEAPLTHHDYTKYKVVVYSAVVKADAKTYRFRDKVLKKGGVWKDIYGIDEKKIASMVREDKIDILVELTGHTANNKLGTMACRPAPVQVTWIGYPNTTGLPTVDYRITDSLADPPDTKQKQVEELVRLPDCFLCYTPSPEAGPVCPTPALSNGFVTFGSFNNLAKITPKVLQVWARILCAVPNSRLVVKCKPFCCDSIRQRFLTTLEQLGLESKRVDLLPLILFNHDHMQAYSLMDISLDTFPYAGTTTTCESLYMGVPCVTMAGSVHAHNVGVSLLTKVGLGHLVAKNEDEYVQLSVDLASDVTALSKLRMSLRDLMAGSPVCNGPSFAVGLESAYRNMWKKYCKGEVPSLRRMEMLQKEVHDDPLISKDLGPSRVSVTGEATPSLKANGSAPVPSSLPTQSPQLSKRMDSTS
# B2: Arabidopsis SPINDLY (SPY), wild type, full-length (enzyme, Arabidopsis thaliana, UniProt Q96301 1-914, looked up)
# chain: B1 parent chain
# notes: Dimer in solution by SEC-MALS; also called wild type SPY; SPY^WT; not shown: His6, N-terminal, cleaved; SUMO, N-terminal, cleaved
# B3: self-fucosylated SPY (enzyme, Arabidopsis thaliana, UniProt Q96301 1-914, looked up)
# chain: B1 parent chain
# modifications: O-fucose by self-fucosylation (major sites S21 and S24 by the paper's mutagenesis)
# notes: SPINDLY (SPY), Arabidopsis thaliana, At3g11540, self-fucosylated sample run on gel filtration; Fucosylation of the sample was checked by western blotting with biotinylated AAL; also called SPY with fucosylation modification; source: E. coli BL21 (DE3), purified; self-fucosylated sample; not shown: His6, N-terminal, cleaved; SUMO, N-terminal, cleaved
# B4: SPINDLY (SPY): S24A (protein)
# parent chain: B1 parent chain
# B5: SPINDLY (SPY): self-fucosylated SPY (protein)
# parent chain: B1 parent chain
# B6: engineered Arabidopsis SPY^C645S (enzyme, Arabidopsis thaliana, UniProt Q96301 1-914, looked up)
# chain: B1 parent chain with C645S
# notes: SPINDLY (SPY), Arabidopsis thaliana, At3g11540, full-length with C645S; Crystallised with GDP; residues 848-914 and most of 1-43 are invisible in the structure; also called SPY (in the SPY/GDP complex structure); catalytic SPY; not shown: His6, N-terminal, cleaved; SUMO, N-terminal, cleaved
# Tests used:
# [1] = in vitro fucosylation of DELLA1–205, AAL lectin blot; details: glycan lost; control: wild type SPY
# [2] = biological target: the molecule itself; test: SEC-MALS; ~500 μg loaded on Superdex 200 increase 10/300 connected to a HELEOS multi-angle light scattering instrument; 20 mM Tris pH 7.9, 300 mM NaCl, 0.5 mM TCEP
# [3] = biological target: the molecule itself; test: SEC; Superdex 200 Increase 10/300 GL, 0.5 mL injected; 50 mM Tris pH 7.9, 300 mM NaCl, 0.5 mM TCEP, 2 mM benzamidine; samples incubated at 4 °C for 6 h; peak fractions on SDS-PAGE
# gel filtration = details: glycan gained; control: wild type unmodified SPY
Protein,enzymatic_activity [1],stoichiometry N [2],also measured
B1,no change,,
B2,,2,
B3,,,stoichiometry N [3]: 2
B4,no change,,
B5,,,oligomerisation (gel filtration): no change
B6,,2,
